Reference: the DeepSol protein solubility set

Test: soluble on expression in E. coli; label from the status in PepcDB or PDB records

| Sequence | soluble on expression in E. coli |
| --- | --- |
| MSKDYRSLANLSPFELKDELIKVASGKANRLMLNAGRGNPNFLATTPRRAFFRLGLFAAAESELSYSYMTVGVGGLAKLDGIEGRFERFIAEHRDQEGVKFLGKSLSYVRDQLGLDPAAFLHEMVDGILGCNYPVPPRMLTVSEQIVRQYIVREMAGGAVPPESVDLFAVEGGTAAMAYIFESLRISGLLKAGDKVAIGMPVFTPYIEIPELAQYDLKEVPIHADPDNGWQYSDAELDKLKDPDVKIFFCVNPSNPPSVKMDQRSLDRVRAIVAEQRPDLLILTDDVYGTFADEFQSLFSVCPRNTLLVYSFSKYFGATGWRLGVIAAHKDNVFDHALSQLPESAKKALDHRYRSLLPDVRSLKFIDRLVADSRVVALNHTAGLSTPQQVQMVLFSLFALMDEADAYKQALKQLIRRREATLYRELGMPPLENPNSVNYYTLIDLQNVTCRLYGEAFSQWAVQQSSTGDMLFRVADETGIVLLPGRGFGSDRPSGRASLANLNEYEYAAIGRALRRLADELYEQYKALGKEKLAAALEHHHHHH | soluble |
| MSKFSLKLGSKTLKKNISKKTKKKNSLQKANLFDWDDAETASLSHKPQSKIKIQSIDKFDLDEESSSKKKLVIKLSENADTKKNDAPLVEYVTEKEYNEVPVEEFGDALLRGMGWESDSEQDSKGDKTQSRNKDVSNVSQIHPDGLGIGAKLNKAINVEEASFMPVVKIDKITGTKVDDDKKNKS | soluble |
| MSKGKVCLAYSGGLDTSVILAWLLDQGYEVVAFMANVGQEEDFDAAKEKALKIGACKFVCVDCREDFVKDILFPAVQVNAVYEDVYLLGTSLARPVIAKAQIDVAKQEGCFAVSHGCTGKGNDQIRFELSFYALKPDVKCITPWRMPEFFERFAGRKDLLDYAAQKGIPVAQTKAKPWSTDENQAHISYEAGILEDPDTTPPKDMWKLIVDPMDAPDQPQDLTIDFERGLPVKLTYTDNKTSKEVSVTKPLDVFLAASNLARANGVGRIDIVEDRYINLKSRGCYEQAPLTVLRKAHVDLEGLTLDKEVRQLRDSFVTPNYSRLIYNGFLLHPECEYIRSMIQPSQNSVNGTVRVRLYKGNVIILGRSTKTEKLYDPTESSMDELTGFLPTDTTGFIAIQAIRIKKYGESKKTKGEELTL | soluble |
| MSKIAIIGATGRAGSQLLEEALRRGHSVTAIARNTAKIGSRAGVVSRDVDVADSAALQAAVAGHDVVISAAHFSSIAANAIIDPVKKAGVKRLLVVGGAGSLLLPGGSKVIDSPGFPEEYKAEASAGGVYLETLRKEQDLDWTFLSPSAEFVEGERTGHFRLGQDDLLVSAEGRSWITFADYAIAMLDEVEKPAHSRQRFTVGYLEHHHHHH | not soluble |
| MSKIEIYNREEALLLIEKLNNSNIEIPILLMLTLGLRLGEATGLRWTDVDLNIGSVSVSQTLIYANNKIEFKEPKTSKSRRTLSAPDELIEKLKIEKLRQNKLKLQGILKNENNLVCLNKDYNPFLPATLRKSFHRFIKKNNLKNIRMHDLRHTNASLLLLGGTNMKVVSERLGHTDIQITMNRYSHVLEEMDKKASDNLSKILEHHHHHH | not soluble |
| MSKISQQNSTPGVNGISVIHTQAHASGLQQVPQLVPAGPGGGGKAVAPSKQSKKSSPMDRNSDEYRQRRERNNMAVKKSRLKSKQKAQDTLQRVNQLKEENERLEAKIKLLTKELSVLKDLFLEHAHNLADNVQSISTENTTADGDNAGQ | soluble |
| MSKLAEFREAERKLQEQLALLEKLKSDSSLKQELEFKDKLQALMDKYGMTLHNIIAILDPKAPVTVSAAPQRRARALKVYKNPNNGEVVETKGGNHKVLKAWKEQYGSETVESWLQR | not soluble |
| MSKPYLAGLLLISPWALAASGSWSSESFGGTMTRGQQSVKSKPLQSPSPLPPGARATTVHWKIKTDGLTPSGLRIRLCNAARCVRLAGWAGEMPLPAGIAPEGPFRFEYHASEAGTLRSPVTILSNQLTVSYHSSH | not soluble |
| MSKQQPTQFINPETPGYVGFANLPNQVHRKSVKKGFEFTLMVVGESGLGKSTLINSLFLTDLYPERVIPGAAEKIERTVQIEASTVEIEERGVKLRLTVVDTPGYGDAINCRDCFKTIISYIDEQFERYLHDESGLNRRHIIDNRVHCCFYFISPFGHGLKPLDVAFMKAIHNKVNIVPVIAKADTLTLKERERLKKRILDEIEEHNIKIYHLPDAESDEDEDFKEQTRLLKASIPFSVVGSNQLIEAKGKKVRGRLYPWGVVEVENPEHNDFLKLRTMLITHMQDLQEVTQDLHYENFRSERLKRGGRKVENEDMNKDQILLEKEAELRRMQEMIARMQAQMQMQMQGGDGDGGALGHHV | soluble |
| MSKRRYLTGKEVQAMMQAVCYGATGARDYCLILLAYRHGMRISELLDLHYQDLDLNEGRINIRRLKNGFSTVHPLRFDEREAVERWTQERANWKGADRTDAIFISRRGSRLSRQQAYRIIRDAGIEAGTVTQTHPHMLRHACGYELAERGADTRLIQDYLGHRNIRHTVRYTASNAARFAGLWERNNLINEKLKREEV | not soluble |
| MSKSIYEQYLQAKADNPGKYARDLATLMGISEAELTHSRVSHDAKRLKGDARALLAALEAVGEVKAITRNTYAVHEQMGRYENQHLNGHAGLILNPRNLDLRLFLNQWASAFTLTEETRHGVRHSIQFFDHQGDALHKVYVTEQTDMPAWEALLAQFITTENPELQLEPLSAPEVTEPTATDEAVDAEWRAMTDVHQFFQLLKRNNLTRQQAFRAVGNDLAYQVDNSSLTQLLNIAQQEQNEIMIFVGNRGCVQIFTGMIEKVTPHQDWINVFNQRFTLHLIETTIAESWITRKPTKDGFVTSLELFAADGTQIAQLYGQRTEGQPEQTQWRDQIARLNNKDIAA | soluble |
| MSKSTAEIRQAFLDFFHSKGHQVVASSSLVPHNDPTLLFTNAGMNQFKDVFLGLDKRNYSRATTSQRCVRAGGKHNDLENVGYTARHHTFFEMLGNFSFGDYFKHDAIQFAWELLTSEKWFALPKERLWVTVYESDDEAYEIWEKEVGIPRERIIRIGDNKGAPYASDNFWQMGDTGPCGPCTEIFYDHGDHIWGGPPGSPEEDGDRYIEIWNIVFMQFNRQADGTMEPLPKPSVDTGMGLERIAAVLQHVNSNYDIDLFRTLIQAVAKVTGATDLSNKSLRVIADHIRSCAFLIADGVMPSNENRGYVLRRIIRRAVRHGNMLGAKETFFYKLVGPLIDVMGSAGEDLKRQQAQVEQVLKTEEEQFARTLERGLALLDEELAKLSGDTLDGETAFRLYDTYGFPVDLTADVCRERNIKVDEAGFEAAMEEQRRRAREASGFGADYNAMIRVDSASEFKGYDHLELNGKVTALFVDGKAVDAINAGQEAVVVLDQTPFYAESGGQVGDKGELKGANFSFAVEDTQKYGQAIGHIGKLAAGSLKVGDAVQADVDEARRARIRLNHSATHLMHAALRQVLGTHVSQKGSLVNDKVLRFDFSHNEAMKPEEIRAVEDLVNTQIRRNLPIETNIMDLEAAKAKGAMALFGEKYDERVRVLSMGDFSTELCGGTHASRTGDIGLFRIISESGTAAGVRRIEAVTGEGAIATVHADSDRLSEVAHLLKGDSNNLADKVRSVLERTRQLEKELQQLKEQAAAQESANLSSKAIDVNGVKLLVSELSGVEPKMLRTMVDDLKNQLGSTIIVLATVVEGKVSLIAGVSKDVTDRVKAGELIGMVAQQVGGKGGGRPDMAQAGGTDAAALPAALASVKGWVSAKLQ | soluble |
| MSKVNQQDIDKLIELVGGRGNIATVSHCITRLRFVLNDPAIARPKEIEQLRMVKGCFTNAGQFQVVIGTEVGDYYKALLATTGQTSADKEQVKQA | not soluble |
| MSLAAGRSSTSGLVAPDIENPFFPEIIRAFQESTNLSGLEAVGMNTAYDAQRTRGVIERPVSLQVPGAAFFTTQVDSGIKNALAARNIAGVYMDYGDAAPGISSIAVNYPEGMLQAITHLRDLGHRRIGLVGGPAHGAGAQRRKAAFLEGLKTNGIEGRATESDFSVQGGYFSCSKLLASYDCTAVIAANDLMAIGALHLAYDRQIAVPAQLSIIGFDDITFAKFTQPALTTVAVPRAEIGRVAFECRLALMKDPGAAGESHEIPTHLVVRQTTASVGEGHHHHHH | not soluble |
| MSLAAGYGVPLEQGEHRLGSSRVVVETAGDGLVRYRREVDGGGSVELLFDGTVDLQPVPMYPIFKPLYVTRFILLRIEPRIVVSPGSERTFYTLIPVDTAIYAFPGDEPTIVDVIPMDDKPSLVLYGPPESGVVARLAISSVSPRPEEPSLGRALARIAVKNISGTPVTLSRILLDSAPLKLYFERGTWRAYTQELAVEVERYRGVVMYRQPFREGTMPISDPPEVRPPRFFQRTDMMWGVEGHHHHHH | not soluble |
